Laboratory results taken from PMC3946673.

Target: human lactoferrin from milk (human)
Experiment: SPR; lactoferrin immobilised by amine coupling on Sensor Chip CM3 (around 1000 RU); EndoE variants injected at typically 31-500 nM, 15 µl/min, 25°C, 10 mM Hepes pH 7.5, 150 mM NaCl, 0.005% surfactant P20; BIAcore 2000; 1:1 Langmuir fit, KD from mean values of the rate constants

Row | Substance | Kd
1 | EndoE(E186Q) (from UniProt Q6U890 1-837) (enzyme) | 44 nM
2 | EndoE(E662Q) (from UniProt Q6U890 1-837) (enzyme) | 3.7 nM
